Patent US20240117326

T1: NifD-NifK proteins from K. oxytoca (expressed from MIT2.1 in E. coli JM109)
T1 chain 1: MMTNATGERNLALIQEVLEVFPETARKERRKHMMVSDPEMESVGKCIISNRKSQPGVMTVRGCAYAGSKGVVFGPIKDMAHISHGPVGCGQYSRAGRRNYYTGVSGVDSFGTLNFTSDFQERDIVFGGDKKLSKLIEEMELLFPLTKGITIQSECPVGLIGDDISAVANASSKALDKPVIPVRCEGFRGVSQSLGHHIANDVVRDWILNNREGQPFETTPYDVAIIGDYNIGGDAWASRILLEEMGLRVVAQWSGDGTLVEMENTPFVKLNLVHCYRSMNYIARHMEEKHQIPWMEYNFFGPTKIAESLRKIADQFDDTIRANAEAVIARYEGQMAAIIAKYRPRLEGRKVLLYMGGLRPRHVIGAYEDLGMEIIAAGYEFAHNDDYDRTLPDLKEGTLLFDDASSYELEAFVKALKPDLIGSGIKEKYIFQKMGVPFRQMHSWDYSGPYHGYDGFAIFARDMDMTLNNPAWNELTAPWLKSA
T1 chain 2: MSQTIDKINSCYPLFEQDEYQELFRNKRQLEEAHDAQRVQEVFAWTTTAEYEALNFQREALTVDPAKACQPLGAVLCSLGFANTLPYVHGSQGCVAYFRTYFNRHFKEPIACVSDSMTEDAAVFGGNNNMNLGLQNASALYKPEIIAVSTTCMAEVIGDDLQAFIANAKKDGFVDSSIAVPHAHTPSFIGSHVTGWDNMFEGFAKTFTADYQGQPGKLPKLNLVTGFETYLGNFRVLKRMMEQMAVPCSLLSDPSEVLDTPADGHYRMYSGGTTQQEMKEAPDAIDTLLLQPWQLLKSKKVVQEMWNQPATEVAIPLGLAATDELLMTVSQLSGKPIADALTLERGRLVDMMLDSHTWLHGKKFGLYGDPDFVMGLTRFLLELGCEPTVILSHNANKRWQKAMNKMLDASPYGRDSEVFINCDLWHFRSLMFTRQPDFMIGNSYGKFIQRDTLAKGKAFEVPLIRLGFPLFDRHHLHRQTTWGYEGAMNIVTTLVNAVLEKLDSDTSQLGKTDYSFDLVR

B1: Geobacter sp. NifH (Genbank Accession No. WP_015837436) (protein)
chain: MRQIAIYGKGGIGKSTTTQNTVAGLASIGKKVMIVGCDPKADSTRLILHAKAQSTVMDLVRELGTVEDLELEDVMKVGYGDVKCVESGGPEPGVGCAGRGVITAINFLEENGAYTPDLDFVFYDVLGDVVCGGFAMPIREGKAEEIYIVCSGEMMAMYAANNIAKGILKYATSGKVRLAGLICNARKTDKEYELIDALAKKLGTQMIHFVPRDNQVQRAELRRMTVIEYSPEHPQAQEYRTLAQKIADNKMLVVPTPLEMEELEDLLMEFGIMEAEDESIVGVAEAAAV
B2: H. modesticaldum NifH (Genbank Accession No. WP_012282218) (protein)
chain: MRQIAIYGKGGIGKSTTTQNTVSALAEMGKKVMIVGCDPKADSTRLILHSKAQATVMDLAREKGTVEDLELSDVLLTGFADIRCAESGGPEPGVGCAGRGVITAINFLEENGAYTPDLDYVFYDVLGDVVCGGFAMPIRENKAQEIYIVTSGEMMAMYAANNIARGILKYASSGKVRLGGLICNSRKVDKEYELIDELATRLGTQMIHFLPRDNQVQRAELRRMTVIEYSPDHPQADEYRALAKKIDENKKLVIPTPLTMDELEDLLIQYGILEDEETAAAKLG
B3: Carboxydothermus pertinax NifH (Genbank Accession No. WP_075859892) (protein)
chain: MTRKIAIYGKGGIGKSTTQQNTAAALAYFYGKKVLIHGCDPKADCTRLILGGKPQETVMDTMRELGEDAVTIDRVVKTGFCGIKCVESGGPEPGVGCAGRGVITAISLMEELGAYTPDLDFIFFDVLGDVVCGGFAMPVREGKAQEIYIVASGEMMALYAANNICRGMVKYAEQSGVRLGGIICNSRNVDGERELMEEFCSKIGTQMIHFIPRDNIVQKAEFNRQTVTQFDPNCNQAQEYRELARKIIENDMFVIPKPMTMDEMENLVIKYGLLE
B4: M. infernus NifH (Genbank Accession No. WP_013099459) (protein)
chain: MSFDEIAPNAKKVAIYGKGGIGKSTTTQNTAAALAYYYKLKGMIHGCDPKADSTRMILHGKPQETVMDVLREEGEEGVTLEKVRKVGFCGIYCVESGGPEPGVGCAGRGVITAVNLMKELGGYPDDLDFLFFDVLGDVVCGGFAMPLRDGLAKEIYIVSSGEMMALYAANNIAKGILKYAEQSGVRLGGIICNSRNVDGERELMEEFCDKLGTKLIHFIPRDNIVQKAEFNKMTVVEFAPDHPQALEYKKLGKKIMDNDELVIPTPLSMDELEKLVEKYGLYDK
B5: M laminosus NifH (Genbank Accession No. Q47917) (protein)
chain: MTENIRQIAFYGKGGIGKSTTSQNTLAAMAEMGQRIMIVGCDPKADSTRLMLHSKAQTTVLHLAAERGAVEDLELEEVMLTGFRGVKCVESGGPEPGVGCAGRGIITAINFLEENGAYQDLDFVSYDVLGDVVCGGFAMPIREGKAQEIYIVTSGEMMAMYAANNIARGILKYAHSGGVRLGGLICNSRKVDREAELIENLAERLNTQMIHFVPRDNIVQHAELRRMTVNEYAPDSNQSQEYRALAKKIINNTKLTIPTPMEMDELEALLIEYGILDDDTKHADIIGKPAEASAK
B6: C. tepidum NifH (Genbank Accession No. WP_010933198) (protein)
chain: MRKVAIYGKGGIGKSTTTQNTVAGLAEAGKKVMVVGCDPKADSTRLLLGGLQQKTVLDTLREEGEEVELEDIIKEGYRNTRCTESGGPEPGVGCAGRGIITSVNLLEQLGAYDDEWELDYVFYDVLGDVVCGGFAMPIRDGKAEEIYIVCSGEMMAMYAANNICKGILKYADAGGVRLGGLICNSRKVDNEREMIEELARRLGTQMIHFVPRDNFVQRAEINRKTVIDFDPTHPQADEYRALAKKIDENKMFVIPKPLEIDELESLLIEFGIAN
B7: M thermautotrophicus NifH (Genbank Accession No. AAB86034) (protein)
chain: MVRKIAIYGKGGIGKSTTQQNTAAAMSYFHGKNVMIHGCDPKADSTRLILGGKMQTTMMDTLRELGEVACTPDKVIETGFGGIKCVESGGPEPGVGCAGRGVITAITLMERHGVYEKDLDFVFFDVLGDVVCGGFAMPVRDGKAEEIYIVASGEMMALYAANNICKGMVKYARQSGVRLGGIICNSRNVDGEKELLEEFCERIGTQMIHFVPRDNIVQKAEFNKKSVIEFDPECNQSQEYRELARKIIENKDFVIPEPMTMDEMEELVVKYGVMD

Molecular target: T1, NifD-NifK proteins from K. oxytoca …

Protein | acetylene reduction assay (ethylene production) in E. coli JM109 with modified MIT2.1
B1 | none of the JM109 strains carrying the modified MIT2.1 plasmids with the NifH variants reduced acetylene, instead showing the same background level of ethylene production as JM109 carrying the negative control plasmid pB-ori
B2 | none of the JM109 strains carrying the modified MIT2.1 plasmids with the NifH variants reduced acetylene, instead showing the same background level of ethylene production as JM109 carrying the negative control plasmid pB-ori
B3 | none of the JM109 strains carrying the modified MIT2.1 plasmids with the NifH variants reduced acetylene, instead showing the same background level of ethylene production as JM109 carrying the negative control plasmid pB-ori
B4 | none of the JM109 strains carrying the modified MIT2.1 plasmids with the NifH variants reduced acetylene, instead showing the same background level of ethylene production as JM109 carrying the negative control plasmid pB-ori
B5 | none of the JM109 strains carrying the modified MIT2.1 plasmids with the NifH variants reduced acetylene, instead showing the same background level of ethylene production as JM109 carrying the negative control plasmid pB-ori
B6 | none of the JM109 strains carrying the modified MIT2.1 plasmids with the NifH variants reduced acetylene, instead showing the same background level of ethylene production as JM109 carrying the negative control plasmid pB-ori
B7 | none of the JM109 strains carrying the modified MIT2.1 plasmids with the NifH variants reduced acetylene, instead showing the same background level of ethylene production as JM109 carrying the negative control plasmid pB-ori
